Assay results reported in article PMC6602975 (2019).

What was measured:
[1] = target: Unmodified nucleosome core particle (X. laevis histone octamer on 147 bp Widom-601 DNA) (X. laevis)
[2] = target: H4K16ac nucleosome (X. laevis | , acetyl-lysine at K16)

Row | Binder | Kd [1] [nM] | Kd [2] [nM]
1 | Sir3 BAH D205Q (domain or fragment) MAKTLKDLDGWQVIITDDQGRVIDDNNRRRSRKRGGENVFLKRISDGLSFGKGESVIFNDNVTETYSVYLIHEIRLNTLNNVVEIWVFSYLRWFELKPKLYYEQFRPDLIKEDHPLEFYKDKFFNEVNKSELYLTAELSEIWLKDFIAVGQILPESQWNDSSIDKIEDRDFLVRYACEPTAEKFVPIDIFQIIRRVKEMEPKQSQEYLKRVSVP | 300 | 1200
2 | Wild-type Orc1 (1–214) BAH domain (domain or fragment, N-alpha-acetyl on A2 (acetylated at the α-amino group when purified from eukaryotic cells)) MAKTLKDLQGWEIITTDEQGNIIDGGQKRLRRRGAKTEHYLKRSSDGIKLGRGDSVVMHNEAAGTYSVYMIQELRLNTLNNVVELWALTYLRWFEVNPLAHYRQFNPDANILNRPLNYYNKLFSETANKNELYLTAELAELQLFNFIRVANVMDGSKWEVLKGNVDPERDFTVRYICEPTGEKFVDINIEDVKAYIKKVEPREAQEYLKDLTLP | 1100 | –
